Source: patent US20110158992A1 (SCHERING, published 2011)

T1: biotinylated huIL-23R-IgG (human, UniProt Q5VWK5 24-353, biotinylated)
T1 construct: not shown: human IgG1 Fc
T1 sequence: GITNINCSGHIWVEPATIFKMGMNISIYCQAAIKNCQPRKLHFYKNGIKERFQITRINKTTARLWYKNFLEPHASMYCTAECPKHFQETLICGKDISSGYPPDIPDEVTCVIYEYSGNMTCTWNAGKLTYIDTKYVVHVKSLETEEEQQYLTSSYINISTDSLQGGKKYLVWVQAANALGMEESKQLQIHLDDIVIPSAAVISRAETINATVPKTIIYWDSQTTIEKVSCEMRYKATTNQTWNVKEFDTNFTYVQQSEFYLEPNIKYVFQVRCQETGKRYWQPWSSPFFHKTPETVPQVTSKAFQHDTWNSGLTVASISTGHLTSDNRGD


target: T1, biotinylated huIL-23R-IgG; experiment: ECL binding assay, periplasmic Fab extracts, biotinylated huIL-23R-IgG; AUC vs parental 8B10 Fab
Source text: The N31T change was introduced as a result of affinity maturation experiments, as follows. An E. coli expression vector for expression into the periplasmic space was constructed encoding a chimeric Fab fragment of rat antibody 8B10 comprising rat variable domains, a human constant light chain domain (CL) and a human constant heavy chain domain CH1. Mutations were introduced using a QuikChange® site directed mutagenesis kit (Stratagene Inc., LaJolla, Calif., USA). Primers were designed to replace selected positions with either alanine, or by all 20 amino acids, using the NNK codon approach (N includes an equimolar mix of A/G/C/T and K includes only G/T). To reduce background, alanine mutants at each position were used as the template for the randomization step. Unpurified periplasmic extracts were then tested for human IL-23R binding activity using an electrochemiluminescence assay with biotinylated huIL-23R-IgG and goat anti-huFab-Ori-Tag for detection. The area under the curve was used to compare the binding activity of sequence variants to the original parental 8B10 Fab. Data were fitted using GraphPad Prism® 3.0 software (Graphpad Software inc., San Diego, Calif. USA).

Binder	Binding (% of w.t.)
chimeric 8B10 Fab, VH H102A (Fab, V domains shown, Rat V domains with human CH1 and CL; E. coli periplasmic extract) VH: EVKLVESGGGLEQPKGSLKLSCTVSGFDFNSYGMSWVRQAPGKGLDLVADINSKSYNYATYYADSVKDRFTISRDDSQSMVYLEMDNLKTEDTALYYCTVHASDYFEYWGQGVMVTVSS VL: DIQMTQSPASLSASLGETVSIECLASEDIYNNLAWYQQKPGKSPQLLIYHASSLQDGVPSRFSGSGSGTQYSLKINSLESEDAATYFCLQDSEYPPTFGGGTKLELKR	84.2 % of w.t.
chimeric 8B10 Fab, VH A49G (Fab, V domains shown, Rat V domains with human CH1 and CL; E. coli periplasmic extract) VH: EVKLVESGGGLEQPKGSLKLSCTVSGFDFNSYGMSWVRQAPGKGLDLVGDINSKSYNYATYYADSVKDRFTISRDDSQSMVYLEMDNLKTEDTALYYCTVHHSDYFEYWGQGVMVTVSS VL: DIQMTQSPASLSASLGETVSIECLASEDIYNNLAWYQQKPGKSPQLLIYHASSLQDGVPSRFSGSGSGTQYSLKINSLESEDAATYFCLQDSEYPPTFGGGTKLELKR	79 % of w.t.
chimeric 8B10 Fab, VH D50A (Fab, V domains shown, Rat V domains with human CH1 and CL; E. coli periplasmic extract) VH: EVKLVESGGGLEQPKGSLKLSCTVSGFDFNSYGMSWVRQAPGKGLDLVAAINSKSYNYATYYADSVKDRFTISRDDSQSMVYLEMDNLKTEDTALYYCTVHHSDYFEYWGQGVMVTVSS VL: DIQMTQSPASLSASLGETVSIECLASEDIYNNLAWYQQKPGKSPQLLIYHASSLQDGVPSRFSGSGSGTQYSLKINSLESEDAATYFCLQDSEYPPTFGGGTKLELKR	67.3 % of w.t.
chimeric 8B10 Fab, VH D104A (Fab, V domains shown, Rat V domains with human CH1 and CL; E. coli periplasmic extract) VH: EVKLVESGGGLEQPKGSLKLSCTVSGFDFNSYGMSWVRQAPGKGLDLVADINSKSYNYATYYADSVKDRFTISRDDSQSMVYLEMDNLKTEDTALYYCTVHHSAYFEYWGQGVMVTVSS VL: DIQMTQSPASLSASLGETVSIECLASEDIYNNLAWYQQKPGKSPQLLIYHASSLQDGVPSRFSGSGSGTQYSLKINSLESEDAATYFCLQDSEYPPTFGGGTKLELKR	1.5 % of w.t.
chimeric 8B10 Fab, VH E107A (Fab, V domains shown, Rat V domains with human CH1 and CL; E. coli periplasmic extract) VH: EVKLVESGGGLEQPKGSLKLSCTVSGFDFNSYGMSWVRQAPGKGLDLVADINSKSYNYATYYADSVKDRFTISRDDSQSMVYLEMDNLKTEDTALYYCTVHHSDYFAYWGQGVMVTVSS VL: DIQMTQSPASLSASLGETVSIECLASEDIYNNLAWYQQKPGKSPQLLIYHASSLQDGVPSRFSGSGSGTQYSLKINSLESEDAATYFCLQDSEYPPTFGGGTKLELKR	61 % of w.t.
chimeric 8B10 Fab, VH F106A (Fab, V domains shown, Rat V domains with human CH1 and CL; E. coli periplasmic extract) VH: EVKLVESGGGLEQPKGSLKLSCTVSGFDFNSYGMSWVRQAPGKGLDLVADINSKSYNYATYYADSVKDRFTISRDDSQSMVYLEMDNLKTEDTALYYCTVHHSDYAEYWGQGVMVTVSS VL: DIQMTQSPASLSASLGETVSIECLASEDIYNNLAWYQQKPGKSPQLLIYHASSLQDGVPSRFSGSGSGTQYSLKINSLESEDAATYFCLQDSEYPPTFGGGTKLELKR	71.1 % of w.t.
chimeric 8B10 Fab, VH G33A (Fab, V domains shown, Rat V domains with human CH1 and CL; E. coli periplasmic extract) VH: EVKLVESGGGLEQPKGSLKLSCTVSGFDFNSYAMSWVRQAPGKGLDLVADINSKSYNYATYYADSVKDRFTISRDDSQSMVYLEMDNLKTEDTALYYCTVHHSDYFEYWGQGVMVTVSS VL: DIQMTQSPASLSASLGETVSIECLASEDIYNNLAWYQQKPGKSPQLLIYHASSLQDGVPSRFSGSGSGTQYSLKINSLESEDAATYFCLQDSEYPPTFGGGTKLELKR	27.4 % of w.t.
chimeric 8B10 Fab, VH H101A (Fab, V domains shown, Rat V domains with human CH1 and CL; E. coli periplasmic extract) VH: EVKLVESGGGLEQPKGSLKLSCTVSGFDFNSYGMSWVRQAPGKGLDLVADINSKSYNYATYYADSVKDRFTISRDDSQSMVYLEMDNLKTEDTALYYCTVAHSDYFEYWGQGVMVTVSS VL: DIQMTQSPASLSASLGETVSIECLASEDIYNNLAWYQQKPGKSPQLLIYHASSLQDGVPSRFSGSGSGTQYSLKINSLESEDAATYFCLQDSEYPPTFGGGTKLELKR	29.1 % of w.t.
chimeric 8B10 Fab, VH I51A (Fab, V domains shown, Rat V domains with human CH1 and CL; E. coli periplasmic extract) VH: EVKLVESGGGLEQPKGSLKLSCTVSGFDFNSYGMSWVRQAPGKGLDLVADANSKSYNYATYYADSVKDRFTISRDDSQSMVYLEMDNLKTEDTALYYCTVHHSDYFEYWGQGVMVTVSS VL: DIQMTQSPASLSASLGETVSIECLASEDIYNNLAWYQQKPGKSPQLLIYHASSLQDGVPSRFSGSGSGTQYSLKINSLESEDAATYFCLQDSEYPPTFGGGTKLELKR	123 % of w.t.
chimeric 8B10 Fab, VH K54A (Fab, V domains shown, Rat V domains with human CH1 and CL; E. coli periplasmic extract) VH: EVKLVESGGGLEQPKGSLKLSCTVSGFDFNSYGMSWVRQAPGKGLDLVADINSASYNYATYYADSVKDRFTISRDDSQSMVYLEMDNLKTEDTALYYCTVHHSDYFEYWGQGVMVTVSS VL: DIQMTQSPASLSASLGETVSIECLASEDIYNNLAWYQQKPGKSPQLLIYHASSLQDGVPSRFSGSGSGTQYSLKINSLESEDAATYFCLQDSEYPPTFGGGTKLELKR	71.1 % of w.t.
chimeric 8B10 Fab, VH N52A (Fab, V domains shown, Rat V domains with human CH1 and CL; E. coli periplasmic extract) VH: EVKLVESGGGLEQPKGSLKLSCTVSGFDFNSYGMSWVRQAPGKGLDLVADIASKSYNYATYYADSVKDRFTISRDDSQSMVYLEMDNLKTEDTALYYCTVHHSDYFEYWGQGVMVTVSS VL: DIQMTQSPASLSASLGETVSIECLASEDIYNNLAWYQQKPGKSPQLLIYHASSLQDGVPSRFSGSGSGTQYSLKINSLESEDAATYFCLQDSEYPPTFGGGTKLELKR	38.7 % of w.t.
chimeric 8B10 Fab, VH R74A (Fab, V domains shown, Rat V domains with human CH1 and CL; E. coli periplasmic extract) VH: EVKLVESGGGLEQPKGSLKLSCTVSGFDFNSYGMSWVRQAPGKGLDLVADINSKSYNYATYYADSVKDRFTISADDSQSMVYLEMDNLKTEDTALYYCTVHHSDYFEYWGQGVMVTVSS VL: DIQMTQSPASLSASLGETVSIECLASEDIYNNLAWYQQKPGKSPQLLIYHASSLQDGVPSRFSGSGSGTQYSLKINSLESEDAATYFCLQDSEYPPTFGGGTKLELKR	52.6 % of w.t.
chimeric 8B10 Fab, VH S31A (Fab, V domains shown, Rat V domains with human CH1 and CL; E. coli periplasmic extract) VH: EVKLVESGGGLEQPKGSLKLSCTVSGFDFNAYGMSWVRQAPGKGLDLVADINSKSYNYATYYADSVKDRFTISRDDSQSMVYLEMDNLKTEDTALYYCTVHHSDYFEYWGQGVMVTVSS VL: DIQMTQSPASLSASLGETVSIECLASEDIYNNLAWYQQKPGKSPQLLIYHASSLQDGVPSRFSGSGSGTQYSLKINSLESEDAATYFCLQDSEYPPTFGGGTKLELKR	100 % of w.t.
chimeric 8B10 Fab, VH S53A (Fab, V domains shown, Rat V domains with human CH1 and CL; E. coli periplasmic extract; also called S53A (heavy chain variable domain)) VH: EVKLVESGGGLEQPKGSLKLSCTVSGFDFNSYGMSWVRQAPGKGLDLVADINAKSYNYATYYADSVKDRFTISRDDSQSMVYLEMDNLKTEDTALYYCTVHHSDYFEYWGQGVMVTVSS VL: DIQMTQSPASLSASLGETVSIECLASEDIYNNLAWYQQKPGKSPQLLIYHASSLQDGVPSRFSGSGSGTQYSLKINSLESEDAATYFCLQDSEYPPTFGGGTKLELKR	88.7 % of w.t.
chimeric 8B10 Fab, VH S55A (Fab, V domains shown, Rat V domains with human CH1 and CL; E. coli periplasmic extract) VH: EVKLVESGGGLEQPKGSLKLSCTVSGFDFNSYGMSWVRQAPGKGLDLVADINSKAYNYATYYADSVKDRFTISRDDSQSMVYLEMDNLKTEDTALYYCTVHHSDYFEYWGQGVMVTVSS VL: DIQMTQSPASLSASLGETVSIECLASEDIYNNLAWYQQKPGKSPQLLIYHASSLQDGVPSRFSGSGSGTQYSLKINSLESEDAATYFCLQDSEYPPTFGGGTKLELKR	105 % of w.t.
chimeric 8B10 Fab, VH S103A (Fab, V domains shown, Rat V domains with human CH1 and CL; E. coli periplasmic extract) VH: EVKLVESGGGLEQPKGSLKLSCTVSGFDFNSYGMSWVRQAPGKGLDLVADINSKSYNYATYYADSVKDRFTISRDDSQSMVYLEMDNLKTEDTALYYCTVHHADYFEYWGQGVMVTVSS VL: DIQMTQSPASLSASLGETVSIECLASEDIYNNLAWYQQKPGKSPQLLIYHASSLQDGVPSRFSGSGSGTQYSLKINSLESEDAATYFCLQDSEYPPTFGGGTKLELKR	65.7 % of w.t.
